Numbering of substitutions follows the chain as printed. Each block holds one binder with its values, some of them ahead of it.
Target: T1, BCMA (Homo sapiens (Human), UniProt Q02223 1-54, limits assumed)
T1 sequence: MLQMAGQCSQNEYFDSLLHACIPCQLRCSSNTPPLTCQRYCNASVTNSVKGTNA
Test: ELISA, format not described
Design: unit not given here

B2: D-domain SEQ ID NO: 304 (designed binder)
chain: MGSWSYFKYGLATIKEKLEALGGSEAELADFETWIAMFEKQLQEYKGKGNPEVEALRKEAAAIRDELQAYRHN
- ELISA_avg: 18.1

B3: D-domain SEQ ID NO: 313 (designed binder)
chain: B2 chain with S5G, Y9H, T13H, E16S, K17S, T33V, M37A, K40N, Q41E
- ELISA_avg: 18.5

B4: D-domain SEQ ID NO: 303 (designed binder)
chain: B2 chain with S5E, E16M, K17H, T33H, M37H, K40H, E44M
- ELISA_avg: 18.4

B5: D-domain SEQ ID NO: 301 (designed binder)
chain: B2 chain with S5I, T13H, E16T, K17R, T33Q, M37E, Q41M, E44D
- ELISA_avg: 21.1

B6: D-domain SEQ ID NO: 300 (designed binder)
chain: B2 chain with Y9W, T13H, E16L, K17R, T33F, M37E, K40G, Q41L, E44D
- ELISA_avg: 17.6

B7: D-domain SEQ ID NO: 307 (designed binder)
chain: B2 chain with S5V, Y9H, T13V, E16M, K17R, M37Q, K40M, Q41T
- ELISA_avg: 21.4

B8: D-domain SEQ ID NO: 314 (designed binder)
chain: MGSWGYFKTGLAIIKAQLEALGGSEAELADFELWIAQFEETLQFYKGKGNPEVEALRKEAAAIRDELQAYRHN
- ELISA_avg: 12.8

B9: D-domain SEQ ID NO: 312 (designed binder)
chain: B2 chain with S5T, Y9F, T13H, E16D, K17S, T33Q, K40Q, Q41D, E44V
- ELISA_avg: 17

B10: D-domain SEQ ID NO: 302 (designed binder)
chain: B8 chain with T9Y, I13T, A16H, Q17R, Q37K, T41Q, F44V
- ELISA_avg: 14

B11: D-domain SEQ ID NO: 299 (designed binder)
chain: B2 chain with Y9F, T13H, E16L, K17R, T33Q, M37S, K40E, E44T
- ELISA_avg: 18.4

B12: D-domain SEQ ID NO: 306 (designed binder)
chain: B2 chain with S5Q, T13I, E16I, T33A, M37T, E44H
- ELISA_avg: 10.3

B13: D-domain SEQ ID NO: 309 (designed binder)
chain: B2 chain with S5Y, T13V, E16G, M37K, K40N, Q41H, E44S
- ELISA_avg: 3.84

B14: D-domain SEQ ID NO: 305 (designed binder)
chain: B2 chain with S5H, Y9N, T13I, T33I, K40M, Q41E
- ELISA_avg: 19.9

B15: D-domain SEQ ID NO: 308 (designed binder)
chain: B2 chain with S5V, T13V, M37E, K40F, Q41G, E44Q
- ELISA_avg: 17.6

B16: D-domain SEQ ID NO: 311 (designed binder)
chain: B2 chain with S5D, T13L, E16I, T33V, M37Q, K40M, Q41A, E44V
- ELISA_avg: 15.8

B17: D-domain SEQ ID NO: 298 (designed binder)
chain: B2 chain with T13I, E16I, K17R, T33R, M37A, K40H, Q41D, E44Y
- ELISA_avg: 13.3

B18: D-domain SEQ ID NO: 310 (designed binder)
chain: B8 chain with G5T, T9Y, I13L, A16Y, Q17R, L33E, E40V, T41S, F44H
- ELISA_avg: 15.2

B21: D-domain SEQ ID NO: 315 (designed binder)
chain: MGSWAYFKYGLAVIKLHLEALGGSEAELADFERYIAEFEYELQAYKGKGNPEVEALRKEAAAIRDELQAYRHN
- ELISA_avg: 13.4

B24: D-domain SEQ ID NO: 333 (designed binder)
chain: MGSWQFFKEHLASIKFWLEALGGSEAELAFFEDAIADFEYHLQNYKGKGNPEVEALRKEAAAIRDELQAYRHN
- ELISA_avg: 10.6

B28: D-domain SEQ ID NO: 322 (designed binder)
chain: MGSWREFKYGLAHIKRVLEALGGSEAELAVFEYYIAKFEQELQEYKGKGNPEVEALRKEAAAIRDELQAYRHN
- ELISA_avg: 14.7

B35: D-domain SEQ ID NO: 49 (designed binder)
chain: MGSWTEFAWRLQAIHQRLQALGGSEAELAAFEKEIAAFESELQAYKGKGNPEVEELRVYAAKIRISLQAYRHN
- ELISA_avg: 18.7

B36: D-domain SEQ ID NO: 47 (designed binder)
chain: B35 chain with T5H, H15N, Q19N, V58H, K62H, I65N, S66G
- ELISA_avg: 13.1

B37: D-domain SEQ ID NO: 52 (designed binder)
chain: MGSWHEFTWRLIAIRERLFALGGSEAELAAFEKEIAAFESELQAYKGKGNPEVEELREYAASIRNMLQAYRHN
- ELISA_avg: 13

B38: D-domain SEQ ID NO: 51 (designed binder)
chain: B35 chain with T5H, A8T, Q12V, H15Q, V58K, Y59F, I65Y, S66E
- ELISA_avg: 19.5

B39: D-domain SEQ ID NO: 50 (designed binder)
chain: B35 chain with T5I, Q19D, E55D, V58E, K62N, I65D
- ELISA_avg: 19

B40: D-domain SEQ ID NO: 46 (designed binder)
chain: B37 chain with H5R, T8A, I12V, R15N, E16S, F19K, E58H, N65D, M66G
- ELISA_avg: 9.66

B41: D-domain SEQ ID NO: 44 (designed binder)
chain: B35 chain with T5Y, A8S, Q19N, V58A, K62G, I65G, S66A
- ELISA_avg: 9.49

B42: D-domain SEQ ID NO: 48 (designed binder)
chain: B35 chain with T5N, Q12T, H15E, Q19M, V58H, K62G, I65D, S66N
- ELISA_avg: 18.3

B43: D-domain SEQ ID NO: 45 (designed binder)
chain: B37 chain with R15Q, E16Q, F19E, E58A, S62G, N65H, M66H
- ELISA_avg: 17.1

B44: D-domain SEQ ID NO: 317 (designed binder)
chain: MGSWEVFKHELAVIKDYLEALGGSEAELAHFEWGIAWFEGFLQDYKGKGNPEVEALRKEAAAIRDELQAYRHN
- ELISA_avg: 9.33

B45: D-domain SEQ ID NO: 316 (designed binder)
chain: MGSWLDFKEGLADIKRSLEALGGSEAELADFEGVIALFEWKLQTYKGKGNPEVEALRKEAAAIRDELQAYRHN
- ELISA_avg: 3.03

B50: D-domain SEQ ID NO: 325 (designed binder)
chain: MGSWISFKDNLAMIKEFLEALGGSEAELAVFEWYIATFEVELQDYKGKGNPEVEALRKEAAAIRDELQAYRHN
- ELISA_avg: 7.16

B52: D-domain SEQ ID NO: 297 (designed binder)
chain: MGSWGNFKYRLAIIKFHLEALGSSEAELATFEAWIANFESMLQNYKGKGNPEVEALRKEAAAIRDELQAYRHN
- ELISA_avg: 22.7

Results, then the binder that gave them:

- ELISA_avg: 12.3
B1: D-domain SEQ ID NO: 331 (designed binder)
chain: MGSWTNFKEGLAEIKRDLEALGGSEAELARFEYVIAVFEFRLQNYKGKGNPEVEALRKEAAAIRDELQAYRHN

- ELISA_avg: 13.7
B19: D-domain SEQ ID NO: 328 (designed binder)
chain: MGSWQSFKHALADIKINLEALGGSEAELAQFEYAIAVFEYRLQAYKGKGNPEVEALRKEAAAIRDELQAYRHN

- ELISA_avg: 6.76
B20: D-domain SEQ ID NO: 329 (designed binder)
chain: B19 chain with Q5H, S6T, H9E, D13Q, I16G, N17E, Q30S, A44M

- ELISA_avg: 10.6
B22: D-domain SEQ ID NO: 318 (designed binder)
chain: MGSWIVFKQSLAWIKEHLEALGGSEAELAEFEFYIANFEHTLQNYKGKGNPEVEALRKEAAAIRDELQAYRHN

- ELISA_avg: 3.2
B23: D-domain SEQ ID NO: 319 (designed binder)
chain: B22 chain with V6Y, Q9D, W13Y, E16K, H17Y, E30T, F33Y, T41E, N44Y

- ELISA_avg: 6.6
B25: D-domain SEQ ID NO: 334 (designed binder)
chain: B24 chain with Q5T, F6Y, D37E, Y40K, H41D, N44Y

- ELISA_avg: 7.69
B26: D-domain SEQ ID NO: 336 (designed binder)
chain: MGSWYLFQSHLAHIKHHLEALGGSEAELAWFEFTIAGFEQELQHYKGKGNPEVEALRKEAAAIRDELQAYRHN

- ELISA_avg: 9.81
B27: D-domain SEQ ID NO: 320 (designed binder)
chain: MGSWDHFKYNLAWIKKYLEALGGSEAELATFEWYIANFEKRLQDYKGKGNPEVEALRKEAAAIRDELQAYRHN

- ELISA_avg: 15.8
B29: D-domain SEQ ID NO: 324 (designed binder)
chain: B28 chain with R5V, Y9H, G10N, H13W, R16V, V17T, K37Q, Q40E, E41Q

- ELISA_avg: 8.36
B30: D-domain SEQ ID NO: 323 (designed binder)
chain: B28 chain with R5I, E6Q, V17T, Y33W, K37D, E41Q, E44G

- ELISA_avg: 14.2
B31: D-domain SEQ ID NO: 321 (designed binder)
chain: MGSWFTFKQNLAWIKLHLEALGGSEAELARFEYYIADFENKLQLYKGKGNPEVEALRKEAAAIRDELQAYRHN

- ELISA_avg: 5.18
B32: D-domain SEQ ID NO: 335 (designed binder)
chain: MGSWIIFKGYLAHIKHHLEALGGSEAELADFEFYIAIFEMELQKYKGKGNPEVEALRKEAAAIRDELQAYRHN

- ELISA_avg: 9.77
B33: D-domain SEQ ID NO: 327 (designed binder)
chain: MGSWTSFKHGLAGIKRVLEALGGSEAELATFEWYIAQFERHLQAYKGKGNPEVEALRKEAAAIRDELQAYRHN

- ELISA_avg: 4.05
B34: D-domain SEQ ID NO: 337 (designed binder)
chain: MGSWYSFKWTLARIKLELEALGGSEAELAYFENVIAHFEMELQSYKGKGNPEVEALRKEAAAIRDELQAYRHN

- ELISA_avg: 17.8
B46: D-domain SEQ ID NO: 338 (designed binder)
chain: MGSWTTLKWRLAHIKQHLEALGGSEAELALFEYDIAHFEELLQYYKGKGNPEVEALRKEAAAIRDELQAYRHN

- ELISA_avg: 10.7
B47: D-domain SEQ ID NO: 339 (designed binder)
chain: MGSWYGFKWYLATIKKHLEALGGSEAELALFETEIATFELWLQDYKGKGNPEVEALRKEAAAIRDELQAYRHN

- ELISA_avg: 18.8
B48: D-domain SEQ ID NO: 330 (designed binder)
chain: MGSWTDFKTSLADIKAELEALGGSEAELAKFEYYIAIFEYRLQEYKGKGNPEVEALRKEAAAIRDELQAYRHN

- ELISA_avg: 10.7
B49: D-domain SEQ ID NO: 332 (designed binder)
chain: B1 chain with T5H, N6T, E9D, R16S, D17E, R30M, V37I, F40Y

- ELISA_avg: 3.47
B51: D-domain SEQ ID NO: 326 (designed binder)
chain: B50 chain with I5H, S6I, M13T, E16A, T37K, V40E, D44G

— US20250026849A1 (ARCELLX, published 2025)
